From patent US20110300138A1 (published 2011)

How the values were obtained:
[1] = target: TSH receptor (full length human TSHR) coated on tubes (human) (UniProt P16473); experiment: 125I-TSH binding inhibition, TSHR coated tubes; 10 ng/mL, in assay buffer
[2] = target: TSHR with Thr257 mutated to Ala, expressed in CHO cells (human) (UniProt P16473); experiment: cell-based or functional assay
[3] = target: wild type TSHR (human TSH receptor) expressed in CHO cells (human) (UniProt P16473); experiment: cell-based or functional assay
[4] = target: TSHR (thyroid stimulating hormone receptor), full length human (human) (UniProt P16473); experiment: negative control; competitor ^125I-K1-70 IgG, TSHR coated tubes; 10 µg/mL in HBD
[5] = target: TSHR (thyroid stimulating hormone receptor), full length human (human) (UniProt P16473); experiment: negative control; competitor ^125I-K1-70 IgG, TSHR coated tubes; 100 µg/mL in HBD
[6] = target: human thyroid stimulating hormone receptor (TSHR), full length (human) (UniProt P16473); experiment: 125I-K1-70 Fab (competitor) binding to TSHR coated tubes; negative control MAb 1 µg/mL in HBD serum
[7] = target: TSH receptor (TSHR), full length human, coated on tubes (human) (UniProt P16473); experiment: inhibition of 125I-K1-18 IgG binding to TSHR coated tubes; competitor 125I-K1-18 IgG; negative control sample at 100 µg/mL in HBD serum
[8] = target: TSHR (thyroid stimulating hormone receptor), full length human (human) (UniProt P16473); experiment: competitor ^125I-K1-70 IgG, TSHR coated tubes; 100 µg/mL in HBD
[9] = target: thyroid stimulating hormone receptor (TSHR), full length human TSHR (human) (UniProt P16473); experiment: TSH-biotin competition ELISA, TSHR coated wells; 1 µg/mL in HBD serum
[10] = target: TSH receptor (TSHR), full length human, coated on tubes (human) (UniProt P16473); experiment: inhibition of 125I-K1-18 IgG (competitor) binding to TSHR coated tubes; test sample at 0.1 µg/mL in HBD serum pool

Molecule: M22 IgG (antibody)
- Inhibition of binding (%) [1]: 26.4%

Molecule: 5B3 IgG (antibody)
- % inhibition of TSH stimulation; 5B3 10 µg/mL [2]: 0%
- % inhibition of TSH stimulation; 5B3 100 µg/mL [2]: 7%
- Cyclic AMP produced; 5B3 10 µg/mL + TSH 3 ng/mL [2]: 94.2 pmol/mL
- Cyclic AMP produced; 5B3 100 µg/mL + TSH 3 ng/mL [2]: 86.8 pmol/mL
- Mutated/wild type (%) of cyclic AMP produced; 5B3 10 µg/mL + TSH 3 ng/mL [2]: 110%
- Mutated/wild type (%) of cyclic AMP produced; 5B3 100 µg/mL + TSH 3 ng/mL [2]: 104%
- Cyclic AMP produced; 5B3 10 µg/mL + TSH 3 ng/mL [3]: 85.9 pmol/mL
- Cyclic AMP produced; 5B3 100 µg/mL + TSH 3 ng/mL [3]: 83.7 pmol/mL
- Inhibition of binding (%) [4]: -1.5%
- Inhibition of binding (%) [5]: -0.9%
- Inhibition of binding (%) [6]: -7.8%
- Inhibition of binding (%) [7]: 29.4%

Molecule: 9D33 IgG (antibody)
- Inhibition of binding (%) [8]: 51.1%
- Inhibition of binding (%) [9]: 76%

B1: 5C9 IgG (antibody, from another filing, V domains shown)
VH: EVQLVESGGGLIQPGGSLRLSCAASGFTVSSNYMSWVRQAPGKGLEWVSVTYSGGSTSYADSVKGRFTISRDNSKNTLYLQMNSLRAEDTAVYYCARGGRYCSSISCYARSGCDYWGQGTLVTVSS
VL: AIQMTQSPSSLSASVGDRVTITCRASQSISNYLNWYQQKPGKAPKLLIYAASSLQSGVPSRFSGSGSGTDFTLTISSLQPEDFATYYCQQSYSSPSTTFGQGTKLEIK
- Inhibition of binding (%) [10]: 21.3%
